Consider three compounds from patent publication US7514069B2, “Tumor-targeted optical contrast agents” (Mallinckrodt Inc., priority 2000, dated 2009).

Data set [1] can be described thus: Monitoring of the blood clearance profile of peptide-dye conjugates. It counts as in vivo, Sprague-Dawley or Fischer 344 rats. Conditions: bolus injection in lateral tail vein; monitored at 830 nm after excitation at 780 nm. An excerpt: A laser of appropriate wavelength for excitation of the dye chromophore was directed into one end of a fiber optic bundle and the other end was positioned a few millimeters from the ear of a rat. A second fiber optic bundle was also positioned near the same ear to detect the emitted fluorescent light and the other end was directed into the optics and electronics for data collection. An interference filter (IF) in the collection optics train was used to select emitted fluorescent light of the appropriate wavelength for the dye chromophore.
Sprague-Dawley or Fischer 344 rats were used in these studies. The animals were anesthetized with urethane administered via intraperitoneal injection at a dose of 1.35 g/kg body weight. After the animals had achieved the desired plane of anesthesia, a 21 gauge butterfly with 12″ tubing was placed in the lateral tail vein of each animal and flushed with heparinized saline. The animals were placed onto a heating pad and kept warm throughout the entire study. […]
Incident laser light delivered from the fiber optic was centered on the affixed ear. Data acquisition was then initiated, and a background reading of fluorescence was obtained prior to administration of the test agent. […] The data were analyzed using a standard sigma plot software program for a one compartment model.

The test system of data set [2] is pancreatic acinar carcinoma (CA20948). Description: Imaging of individual organs removed from CA20948 tumor-bearing rat. Format: in vivo. Conditions: organs removed about 24 hours post administration. The method, then:
Individual organs were removed at about 24 hours post Cytate 1 administration and imaged.

Data set [3] concerns pancreatic acinar carcinoma expressing the SST-2 receptor (CA20948). Description: In vivo fluorescence imaging of rat pancreatic acinar carcinoma (CA20948). Set-up: species or system Lewis rat. An excerpt: (§1) A non-invasive in vivo fluorescence imaging apparatus was employed to assess the efficacy of contrast agents developed for tumor detection in animal models. A LaserMax Inc. laser diode of nominal wavelength 780 nm and nominal power of 40 mW was used. The detector was a Princeton Instruments model RTE/CCD-1317-K/2 CCD camera with a Rodenstock 10 mm F2 lens (stock #542.032.002.20) attached. An 830 nm interference […] (CVI Laser Corp., part # F10-830-4-2) was mounted in front of the CCD input lens such that only emitted fluorescent light from the contrast agent was imaged. Typically, an image of the animal was taken pre-injection of contrast agent. This image was subsequently subtracted (pixel by pixel) from the post injection images. However, the background subtraction was […] done once the animal had been removed from the sample area and returned at a later time for images taken several hours post injection.
The imaging apparatus and the procedure used are described in Example 12. Rat pancreatic acinar carcinoma expressing the SST-2 receptor (CA20948) was induced by solid implant technique in the left flank area, and palpable masses were detected nine days post implant. The images obtained at 2 and 30 minutes post injection are shown in FIG. 7E-F. FIGS. 7E-F are images of a rat with an induced pancreatic acinar carcinoma (CA20948) expressing the SST-2 receptor imaged at two minutes (FIG. 7E) and 30 minutes (FIG. 7F) post injection.
The imaging apparatus and the procedure used are described in Example 12 except that each animal received 500 μl of a 1.0 mg/mL solution of Cytate 1 solution of 25% dimethylsulfoxide in water.
Rat pancreatic acinar carcinoma expressing the SST-2 receptor (CA20948) were induced by solid implant technique in the left flank area, and palpable masses were detected 24 days post implant. Images were obtained at various times post injection.
Cytate 1 was evaluated in the CA20948 Lewis rat model. […] At 27 hours post injection, the animal was again imaged (FIG. 9B).

A further data set concerns DSL 6A tumors. Kind of data set: In vivo fluorescence imaging of pancreatic ductal adenocarcinoma (DSL 6A). Also noted: species or system male Lewis rats.
Source text: as §1
DSL 6A tumors were induced in male Lewis rats in the left flank area by the introduction of material from a solid (donor) implant and the tumors were palpable in approximately 14 days. The animals were anesthetized with xylazine; ketamine; acepromazine 1.5:1.5:0.5 at 0.8 mL/kg via intramuscular injection. The area of the tumor (left flank) was shaved to expose tumor and surrounding surface area. […]

Data set [4] concerns Prostrate tumors (Dunning R3327-H). Description: In vivo fluorescence imaging of prostatic carcinoma (R3327-H). Also noted: species or system young male Copenhagen rats.
Source text: as §1
The imaging apparatus and the procedure used are described as in Example 12. Prostrate tumors (Dunning R3327-H) were induced in young male Copenhagen rats in the left flank area from a solid implant. These tumors grow very slowly and palpable masses were present 4-5 months post implant. FIGS. 7C-D are images of a rat with an induced prostatic carcinoma tumor (R3327-H) imaged at two minutes (FIG. 7C) and 30 minutes (FIG. 7D) post injection.

The mark [5] stands for this setting: 500 μl of 1.0 mg/mL solution in 25% dimethylsulfoxide in water, CA20948 tumor.

The structures appear in SMILES notation.

For the compound `C[C@@H](O)[C@H](NC(=O)[C@@H]1CSSC[C@H](NC(=O)[C@@H](Cc2ccccc2)NC(=O)CCN2C(=CC=CC=CC=CC3=[N+](CCC(=O)O)c4ccc5ccccc5c4C3(C)C)C(C)(C)c3c2ccc2ccccc32)C(=O)N[C@@H](Cc2ccc(O)cc2)C(=O)N[C@H](Cc2c[nH]c3ccccc23)C(=O)N[C@@H](CCCCN)C(=O)N[C@@H]([C@@H](C)O)C(=O)N1)C(=O)O` [Cytate 1, monoOctreotate-Bisethylcarboxymethylindocyanine dye], the “fluorescence signal in blood (ear) after bolus injection” value in data set [1] is “rapidly increased to a peak value. The signal then decayed as a function of time”. In addition, in data set [2], the “organ uptake: adrenals” value is listed as “high uptake”, the “organ uptake: heart” value is “significantly lower uptake”, the “organ uptake: liver” value is “significantly lower uptake” and the “organ uptake: muscle” value is “significantly lower uptake”. In addition, in data set [2], the “organ uptake: pancreas” value is “high uptake”, the “organ uptake: spleen” value was “significantly lower uptake” and the “organ uptake: tumor tissue” value was “high uptake”. For the same compound, in data set [3] (setting [5]), the “time at which uptake into the tumor was maximal” value was “about five” and the “time at which uptake into the tumor was seen” value is recorded as “two”. For the same compound, the “uptake at 45 minutes in rats with the CA20948 tumor cell line” value in data set [3] (45 minutes post injection) is given as “still quite intense”. Besides, in data set [3] (45 minutes post injection, CA20948 Lewis rat model), the “localization of dye in the tumor” value is given as “localization of this dye was observed in the tumor”. For the same compound, the tumor visualization entry in data set [3] (27 hours post injection, CA20948 Lewis rat model) is recorded as “Tumor visualization was easily observed”. In addition, the “persistence of dye fluorescence in the tumor” value in data set [3] (CA20948 tumor, post-injection) is recorded as “remained intense in the tumor for several hours”.
For `C[C@@H](O)[C@H](NC(=O)[C@@H]1CSSC[C@H](NC(=O)[C@@H](Cc2ccccc2)NC(=O)CCN2C(=CC=CC=CC=CC3=[N+](CCC(=O)N[C@H](Cc4ccccc4)C(=O)N[C@H]4CSSC[C@@H](C(=O)N[C@H](C(=O)O)[C@@H](C)O)NC(=O)[C@H]([C@@H](C)O)NC(=O)[C@H](CCCCN)NC(=O)[C@@H](Cc5c[nH]c6ccccc56)NC(=O)[C@H](Cc5ccc(O)cc5)NC4=O)c4ccc5ccccc5c4C3(C)C)C(C)(C)c3c2ccc2ccccc32)C(=O)N[C@@H](Cc2ccc(O)cc2)C(=O)N[C@H](Cc2c[nH]c3ccccc23)C(=O)N[C@@H](CCCCN)C(=O)N[C@@H]([C@@H](C)O)C(=O)N1)C(=O)O` [Cytate 2, bisOctreotate-Bisethylcarboxymethylindocyanine dye], in data set [1], the “fluorescence signal in blood (ear) after bolus injection” value is given as “rapidly increased to a peak value. The signal then decayed as a function of time”.
For `CC1(C)C(/C=C/C=C/C=C/C=C2\N(CCCCS(=O)(=O)O)c3ccc4ccccc4c3C2(C)C)=[N+](CCCCS(=O)(=O)[O-])c2ccc3ccccc3c21` [ICG, indocyanine green], the “dye intensity in the tumor” value is “considerably diminished” with DSL 6A tumors (30 minutes post-ICG injection, bolus injection of 0.5 ml aqueous solution of ICG, DSL 6A tumor); “considerably diminished and almost absent” in data set [3] (30 minutes post-ICG injection, CA20948 tumor); “considerably diminished” in data set [4] (30 minutes post-ICG injection, R3327-H tumor). In addition, the “perfusion of the agent into the tumor” value in the data set with DSL 6A tumors (DSL 6/A (pancreatic) tumor line, CCD camera) is reported as “slow perfusion of the agent over time into the tumor”; in data set [3] (CA20948 (pancreatic) tumor line, CCD camera), “only a slight but transient perfusion that was absent after only 30 minutes post injection”; in data set [4] (Dunning R3327H (prostate) tumor line, CCD camera), “slow perfusion of the agent over time into the tumor”. For the same compound, in data set [3] (45 minutes post injection), the “uptake at 45 minutes in rats with the CA20948 tumor cell line” value was “mostly cleared”.
